{"source": "paper PMC8630191", "about": "“Regulation of PP2A, PP4, and PP6 holoenzyme assembly by carboxyl-terminal methylation” (Scientific Reports, 2021)", "binders": {"B1": {"name": "PR65β, PP2A scaffolding (A) subunit (natural protein, UniProt P30154 1-601, looked up)", "chain": "MAGASELGTGPGAAGGDGDDSLYPIAVLIDELRNEDVQLRLNSIKKLSTIALALGVERTRSELLPFLTDTIYDEDEVLLALAEQLGNFTGLVGGPDFAHCLLPPLENLATVEETVVRDKAVESLRQISQEHTPVALEAYFVPLVKRLASGDWFTSRTSACGLFSVCYPRASNAVKAEIRQQFRSLCSDDTPMVRRAAASKLGEFAKVLELDSVKSEIVPLFTSLASDEQDSVRLLAVEACVSIAQLLSQDDLETLVMPTLRQAAEDKSWRVRYMVADRFSELQKAMGPKITLNDLIPAFQNLLKDCEAEVRAAAAHKVKELGENLPIEDRETIIMNQILPYIKELVSDTNQHVKSALASVIMGLSTILGKENTIEHLLPLFLAQLKDECPDVRLNIISNLDCVNEVIGIRQLSQSLLPAIVELAEDAKWRVRLAIIEYMPLLAGQLGVEFFDEKLNSLCMAWLVDHVYAIREAATNNLMKLVQKFGTEWAQNTIVPKVLVMANDPNYLHRMTTLFCINALSEACGQEITTKQMLPIVLKMAGDQVANVRFNVAKSLQKIGPILDTNALQGEVKPVLQKLGQDEDMDVKYFAQEAISVLALA", "notes": "PP2A scaffolding subunit A, beta isoform (PR65β)"}, "B2": {"name": "B55β, PP2A regulatory subunit (natural protein, human (endogenous in HeLa), UniProt Q00005 1-443, looked up)", "chain": "MEEDIDTRKINNSFLRDHSYATEADIISTVEFNHTGELLATGDKGGRVVIFQREQESKNQVHRRGEYNVYSTFQSHEPEFDYLKSLEIEEKINKIRWLPQQNAAYFLLSTNDKTVKLWKVSERDKRPEGYNLKDEEGRLRDPATITTLRVPVLRPMDLMVEATPRRVFANAHTYHINSISVNSDYETYMSADDLRINLWNFEITNQSFNIVDIKPANMEELTEVITAAEFHPHHCNTFVYSSSKGTIRLCDMRASALCDRHTKFFEEPEDPSNRSFFSEIISSISDVKFSHSGRYIMTRDYLTVKVWDLNMENRPIETYQVHDYLRSKLCSLYENDCIFDKFECVWNGSDSVIMTGSYNNFFRMFDRNTKRDVTLEASRENSKPRAILKPRKVCVGGKRRKDEISVDSLDFSKKILHTAWHPSENIIAVAATNNLYIFQDKVN", "notes": "PP2A regulatory subunit B55, beta isoform; source: endogenous, HeLa lysate"}, "B3": {"name": "B55α, PP2A regulatory subunit (natural protein, human (endogenous in HeLa), UniProt P63151 1-447, looked up)", "chain": "MAGAGGGNDIQWCFSQVKGAVDDDVAEADIISTVEFNHSGELLATGDKGGRVVIFQQEQENKIQSHSRGEYNVYSTFQSHEPEFDYLKSLEIEEKINKIRWLPQKNAAQFLLSTNDKTIKLWKISERDKRPEGYNLKEEDGRYRDPTTVTTLRVPVFRPMDLMVEASPRRIFANAHTYHINSISINSDYETYLSADDLRINLWHLEITDRSFNIVDIKPANMEELTEVITAAEFHPNSCNTFVYSSSKGTIRLCDMRASALCDRHSKLFEEPEDPSNRSFFSEIISSISDVKFSHSGRYMMTRDYLSVKIWDLNMENRPVETYQVHEYLRSKLCSLYENDCIFDKFECCWNGSDSVVMTGSYNNFFRMFDRNTKRDITLEASRENNKPRTVLKPRKVCASGKRKKDEISVDSLDFNKKILHTAWHPKENIIAVATTNNLYIFQDKVN", "notes": "PP2A regulatory subunit B55, alpha isoform; source: endogenous, HeLa lysate"}, "B4": {"name": "B56ε, PP2A regulatory subunit (natural protein)", "chain": "not shown", "notes": "PP2A regulatory subunit B56, epsilon isoform"}, "B5": {"name": "B56δ, PP2A regulatory subunit (natural protein)", "chain": "not shown", "notes": "PP2A regulatory subunit B56, delta isoform"}, "B6": {"name": "B56α, PP2A regulatory subunit (natural protein)", "chain": "not shown", "notes": "PP2A regulatory subunit B56, alpha isoform"}, "B7": {"name": "STRN (striatin) (natural protein, human (endogenous in Rpe1), UniProt O43815 1-780, looked up)", "chain": "MDEQAGPGVFFSNNHPGAGGAKGLGPLAEAAAAGDGAAAAGAARAQYSLPGILHFLQHEWARFEVERAQWEVERAELQAQIAFLQGERKGQENLKKDLVRRIKMLEYALKQERAKYHKLKYGTELNQGDMKPPSYDSDEGNETEVQPQQNSQLMWKQGRQLLRQYLQEVGYTDTILDVKSKRVRALLGFSSDVTDREDDKNQDSVVNGTEAEVKETAMIAKSELTDSASVLDNFKFLESAAADFSDEDEDDDVDGREKSVIDTSTIVRKKALPDSGEDRDTKEALKEFDFLVTSEEGDNESRSAGDGTDWEKEDQCLMPEAWNVDQGVITKLKEQYKKERKGKKGVKRPNRSKLQDMLANLRDVDELPSLQPSVGSPSRPSSSRLPEHEINRADEVEALTFPPSSGKSFIMGADEALESELGLGELAGLTVANEADSLTYDIANNKDALRKTWNPKFTLRSHFDGIRALAFHPIEPVLITASEDHTLKMWNLQKTAPAKKSTSLDVEPIYTFRAHKGPVLCVVMSSNGEQCYSGGTDGLIQGWNTTNPNIDPYDSYDPSVLRGPLLGHTDAVWGLAYSAAHQRLLSCSADGTLRLWNTTEVAPALSVFNDTKELGIPASVDLVSSDPSHMVASFSKGYTSIFNMETQQRILTLESNVDTTANSSCQINRVISHPTLPISITAHEDRHIKFYDNNTGKLIHSMVAHLEAVTSLAVDPNGLYLMSGSHDCSIRLWNLESKTCIQEFTAHRKKFEESIHDVAFHPSKCYIASAGADALAKVFV", "notes": "Striatin, PP2A regulatory subunit of the striatin family (B'''); source: endogenous, Rpe1 lysate"}, "B8": {"name": "STRN3 (striatin-3) (natural protein, human (endogenous in Rpe1), UniProt Q13033 1-797, looked up)", "chain": "MDELAGGGGGGPGMAAPPRQQQGPGGNLGLSPGGNGAAGGGGPPASEGAGPAAGPELSRPQQYTIPGILHYIQHEWARFEMERAHWEVERAELQARIAFLQGERKGQENLKKDLVRRIKMLEYALKQERAKYHKLKYGTELNQGDLKMPTFESEETKDTEAPTAPQNSQLTWKQGRQLLRQYLQEVGYTDTILDVRSQRVRSLLGLSNSEPNGSVETKNLEQILNGGESPKQKGQEIKRSSGDVLETFNFLENADDSDEDEENDMIEGIPEGKDKHRMNKHKIGNEGLAADLTDDPDTEEALKEFDFLVTAEDGEGAGEARSSGDGTEWDKDDLSPTAEVWDVDQGLISKLKEQYKKERKGKKGVKRANRTKLYDMIADLGDDELPHIPSGIINQSRSASTRMTDHEGARAEEAEPITFPSGGGKSFIMGSDDVLLSVLGLGDLADLTVTNDADYSYDLPANKDAFRKTWNPKYTLRSHFDGVRALAFHPVEPVLVTASEDHTLKLWNLQKTVPAKKSASLDVEPIYTFRAHIGPVLSLAISSNGEQCFSGGIDATIQWWNMPSPSVDPYDTYEPNVLAGTLVGHTDAVWGLAYSGIKNQLLSCSADGTVRLWNPQEKLPCICTYNGDKKHGIPTSVDFIGCDPAHMVTSFNTGSAVIYDLETSQSLVILSSQVDSGLQSNNHINRVVSHPTLPVTITAHEDRHIKFFDNKTGKMIHSMVAHLDAVTSLAVDPNGIYLMSGSHDCSIRLWNLDSKTCVQEITAHRKKLDESIYDVAFHSSKAYIASAGADALAKVFV", "notes": "Striatin-3, PP2A regulatory subunit of the striatin family (B'''); source: endogenous, Rpe1 lysate"}}, "details_in_all_cases": "partners not purified", "key": {"[1]": {"target": "T1, 3xFLAG-tagged PP2Acβ ΔL mutant (Leu 309 deleted) (human, UniProt P62714 1-309, ΔL309)", "T1 construct": "PP2A catalytic subunit, beta isoform (PP2Acβ, PPP2CB), human, in p3XFLAG-CMV10; C-terminal Leu 309 deleted by inserting a stop codon; also called ΔL309", "T1 sequence (P62714 1-308, stated change not applied)": "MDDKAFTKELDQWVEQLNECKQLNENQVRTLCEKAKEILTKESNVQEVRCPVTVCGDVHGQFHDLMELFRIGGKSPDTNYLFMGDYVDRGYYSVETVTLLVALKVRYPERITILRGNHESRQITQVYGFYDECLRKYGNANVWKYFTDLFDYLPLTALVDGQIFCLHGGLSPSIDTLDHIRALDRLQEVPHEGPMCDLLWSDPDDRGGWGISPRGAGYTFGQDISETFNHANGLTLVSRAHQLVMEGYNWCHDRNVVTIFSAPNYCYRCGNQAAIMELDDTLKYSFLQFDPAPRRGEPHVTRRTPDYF", "assay": "affinity purification with mass spectrometry; 3xFLAG-tagged catalytic subunit (WT or ΔL) transfected in FreeStyle 293F cells; FLAG M2 affinity gel, 3 h at 4 °C; lysis and wash buffer 50 mM Tris pH 7.5, 500 mM NaCl, 0.5% Triton X-100; eluted with 3XFLAG peptide; label-free quantitative LC-MS/MS on unique peptides, three replicates"}, "[2]": {"target": "T2, PP2A catalytic subunit PP2Acα/β, endogenous (human (endogenous in HEK293T, HeLa, …, UniProt P67775 1-309, carboxyl methyl ester on the C-terminal leucine in wild-type cells; strongly reduced in LCMT1 hypomorph cells)", "T2 construct": "PP2A catalytic subunit, alpha (PPP2CA) or beta (PPP2CB) isoform; One molecule for wild-type and LCMT1 hypomorph cells; also called PP2Acβ; PPP2CA/B", "T2 sequence (P67775 whole entry, canonical isoform)": "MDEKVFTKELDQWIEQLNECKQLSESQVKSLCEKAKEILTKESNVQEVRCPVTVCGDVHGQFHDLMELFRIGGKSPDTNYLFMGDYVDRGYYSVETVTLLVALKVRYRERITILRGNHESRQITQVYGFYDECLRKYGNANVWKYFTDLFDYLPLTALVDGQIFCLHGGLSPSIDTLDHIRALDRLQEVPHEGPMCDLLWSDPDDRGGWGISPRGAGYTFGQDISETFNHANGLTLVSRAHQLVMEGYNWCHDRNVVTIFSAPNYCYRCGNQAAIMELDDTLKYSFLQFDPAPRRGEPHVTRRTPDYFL", "assay": "affinity purification with mass spectrometry; PIB-MS: phosphatase inhibitor beads (microcystin-LR on sepharose) on HeLa lysates, wild type and LCMT1 hypomorph clone; label-free LC-MS/MS; subunits normalised to the respective catalytic subunit"}, "[3]": {"target": "T2, PP2A catalytic subunit PP2Acα/β, …", "assay": "affinity purification with mass spectrometry; PIB-MS: phosphatase inhibitor beads (microcystin-LR on sepharose) on Rpe1 lysates, wild type and pooled LCMT1 hypomorph cells; label-free LC-MS/MS; subunits normalised to the respective catalytic subunit"}}}
{"binder": "B1", "values": [{"measurement": "fold reduction of binding, ΔL against WT", "setting": "[1]", "value": "~2", "unit": "fold"}]}
{"binder": "B2", "values": [{"measurement": "fold reduction of binding, LCMT1 HM against WT cells", "setting": "[2]", "value": "~4", "unit": "fold"}]}
{"binder": "B3", "values": [{"measurement": "fold reduction of binding, LCMT1 HM against WT cells", "setting": "[2]", "value": "~11", "unit": "fold"}]}
{"binder": "B4", "values": [{"measurement": "fold reduction of binding, ΔL against WT", "setting": "[1]", "value": 11, "unit": "fold"}, {"measurement": "fold more reduced in binding (LCMT1 HM against WT cells) than B56γ and B56δ", "setting": "[2]", "value": 8, "unit": "fold"}]}
{"binder": "B5", "values": [{"measurement": "fold reduction of binding, ΔL against WT", "setting": "[1]", "value": 2, "unit": "fold"}]}
{"binder": "B6", "values": [{"measurement": "fold reduction of binding, ΔL against WT", "setting": "[1]", "value": 32, "unit": "fold"}]}
{"binder": "B7", "values": [{"measurement": "fold reduction of binding, LCMT1 HM against WT cells", "setting": "[3]", "value": 4, "unit": "fold"}]}
{"binder": "B8", "values": [{"measurement": "fold reduction of binding, LCMT1 HM against WT cells", "setting": "[3]", "value": 4, "unit": "fold"}]}
